In this experiment the target is CD82-StrepII3 (human) (UniProt P27701). Kind of experiment: SEC.

Experimental findings from doi:10.64898/2025.12.12.693935 are described below.

B1: CADM1-His6 (natural protein)
chain: QNLFTKDVTVIEGEVATISCQVNKSDDSVIQLLNPNRQTIYFRDFRPLKDSRFQLLNFSSSELKVSLTNVSISDEGRYFCQLYTDPPQESYTTITVLVPPRNLMIDIQKDTAVEGEEIEVNCTAMASKPATTIRWFKGNTELKGKSEVEEWSDMYTVTSQLMLKVHKEDDGVPVICQVEHPAVTGNLQTQRYLEVQYKPQVHIQMTYPLQGLTREGDALELTCEAIGKPQPVMVTWVRVDDEMPQHAVLSGPNLFINNLNKTDNGTYRCEASNIVGKAHSDYMLYVYDPPTTIPPPTTTTTTTTTTTTTILTIITDSRAGEEGSIRAVDHAVIGGVVAVVVFAMLCLLIILGRYFARHKGTYFTHEAKGADDAADADTAIINAEGGQNNSEEKKEYFI
B1: the stoichiometry N worked out at 1.
